{
  "source": "patent US20090083877A1",
  "about": "“Transcription Factors, DNA and Methods for Introduction of Value-Added Seed Traits and Stress Tolerance” (priority 2002, published 2009)",
  "key": {"[1]": {"tested_on": "ABA-inducible wheat Em promoter", "experiment": "Em-GUS reporter transactivation in transiently transformed maize mesophyll protoplasts", "type": "cell-based", "conditions": "for Transactivation of Em-GUS expression by overexpressed effector: effector overexpressed alone", "experimental": "Plant Materials. Maize mesophyll protoplasts were isolated from 20-hr illuminated leaves of 10 day old maize seedlings that had been kept in the dark at 25° C. The middle part of the second leaves (about 6 cm in length) was cut into 0.5 mm strips with a razor blade and digested in an enzyme solution containing 1% (w/v) cellulose RS, 0.1% (w/v) macerozyme R10 (Yakult Honsha, Nishinomiya, Japan), 0.6 M mannitol, 10 mM MES (pH 5.7), 1 mM CaCl2, 1 mM MgCl2, 10 mM β-mercaptoethanol, and 0.1% BSA (w/v) for 3 hr at room temperature. Protoplasts were released by shaking on a rotary shaker at 80 rpm for 10 min and were filtered through a 70 μm nylon filter. Protoplasts were collected by centrifugation at 100 g for 2 min, washed in cold 0.6 M mannitol solution, centrifuged, and resuspended at 2×10^6/mL in cold 0.6 M mannitol. Electroporation conditions were 400 V/cm, 200 μF, 10 msec, and two pulses with a Biorad GenePulser apparatus. Each sample contained 5×10^4 protoplasts and about 50 μg DNA in 0.3 mL of 0.6 M mannitol and 20 mM KCl.\n(§1) Plasmid pBM207 contains the wheat (Triticum aestivum) Early Methionine-labeled (Em) promoter driving the expression of GUS, encoded by uida from Escherichia coli. Plasmid pDH359 contains ABI5 cDNA driven by Ubiquitin promoter. Plasmid pCR349.13S contains the 35S promoter driving the VP1 sense cDNA. Plasmid pDirect2.6 contains the Ubi promoter in a reverse orientation and was used as control construct to balance the total amount of input plasmid DNA between various treatments. Plasmid pAHC 18 contains the Ubi promoter driving firefly (Photinus pyralis) LUC cDNA and was included in transformations to provide an internal reference for non-ABA-inducible transient transcription in reporter enzyme assays. ABF1-ABF4, AREB3, and DPBF4 were amplified by PCR using gene-specific primers from an Arabidopsis cDNA library (Minet et al. Plant J. 2:417 (1992)) and were cloned into plasmid pDH349 (Gampala et al. J. Biol. Chem. 277: 1689 (2002)) containing the maize Ubiquitin promoter and nopaline synthase 3′ termination signals.\nThe values in FIG. 2 are the average (±S.E.M.) of four replicate transformations.\nTo test the involvement of ABI3-Like B3 domain transcription factors in ABA signaling, ABA-inducible reporter gene transactivation by the B3 domain-containing RAV2 was assayed in maize mesophyll protoplasts transiently co-transformed with a full length cDNA under transcriptional control of the Ubiquitin promoter. Activation of Em-GUS reporter gene expression by RAV2, relative to non-ABA inducible Ubi-LUC reference reporter as internal control, and functional interactions of RAV2 with VP1, ABI5, and the ABI5-Like ABF3 were compared in protoplasts treated with or without 100 uM ABA (see FIG. 3)."}, "[2]": {"tested_on": "ABA-inducible wheat Em promoter", "experiment": "Em-GUS reporter transactivation in transiently transformed rice protoplasts", "type": "cell-based, Oryza sativa", "conditions": "for Synergy with exogenous ABA on Em-GUS expression: 100 μM ABA, 16 h; for Transactivation of Em-GUS expression by overexpressed effector: effector overexpressed alone, average of four replicate transformations", "experimental": "Embryonic rice (Oryza sativa) callus cultures (Radon 6 from the International Rice Research Institute, Los Bafios, Phillipines) were obtained. Embryonic rice callus cultures were grown as suspensions in liquid culture as well as on phytagel plates containing MS medium supplemented with 2.0 mg/L 2,4-D. Cultures were propagated and digested for making protoplasts as previously described except that 10 mM HEPES (Sigma, St. Louis, Mo., USA), pH 5.6, was substituted for phosphate in the Krens'F medium, and 2% (weight/volume; w/v) cellulase YC, 0.35% (w/v) macerozyme, and 0.1% (w/v) pectolyase Y23 were used for overnight digestion (Karlan Research Products, Santa Rosa, CA, USA). Protoplasts were transformed with various mixtures of DNA reporter and effector constructs using polyethylene glycol precipitation. Transformed protoplasts were incubated with or without 100 μM ABA for 16 h in the dark in Krens solution before quantifying β-glucuronidase (GUS) and luciferase (LUC) reporter enzyme activities as previously described. ABA was dissolved and stored in absolute ethanol at −20° C. as a 0.1 M stock solution. Prior to use, required dilutions of ABA were made in Krens solution, and control samples received the same volume of solvent as in ABA treatments.\nas §1\nSimultaneously, it has been shown that ABF2, ABF3 and ABF4 overexpression in transgenic Arabidopsis results in ABA hypersensitivity and other ABA-associated phenotypes such as altered ABA-inducible gene expression and glucose signaling, reduced transpiration, and enhanced drought tolerance. The functional roles of the ABI5-like family members ABF1-ABF4 in regulation of ABA-inducible gene expression in rice protoplasts were tested and the results are shown in FIG. 1. […] Protoplasts were transformed with Em-GUS and a “dummy” effector construct (pD2.6 containing only the Ubiquitin promoter used to drive effector expression) or co-transformed with a Ubi-ABF construct and treated with or without 100 μM ABA. The values shown in FIG. 1A are the average (±S.E.M.) of four replicate transformations.\nRice protoplasts were transformed with either Em-GUS alone or in pairwise combinations of Ubi-ABF3, Ubi-ABI5, or 35S-VP1. The values in FIG. 1B are the average (±S.E.M.) of four replicate transformations. ABF3 is a related member of the ABI5-family of bZIP transcription factors."}},
  "note": "Entries after “also recorded” stand apart in the source; their conditions may differ. Where two headings read alike, the source gives them in different places.",
  "data": [
    {"molecule": "ABI5: Arabidopsis basic leucine zipper (bZIP) domain transcription factor, At2g36270, SEQ ID NO 5 and 6", "values": [
      {"measurement": "Synergy with co-transformed VP1 on Em-GUS expression", "setting": "[1]", "value": "can synergize with co-transformed VP1"},
      {"measurement": "Synergy with exogenous ABA on Em-GUS expression", "setting": "[1]", "value": "synergize with exogenous ABA"},
      {"measurement": "Transactivation of Em-GUS expression by overexpressed effector", "setting": "[1]; maize mesophyll protoplasts", "value": "sufficient for transactivation of the Em promoter; also recorded: sufficient for specific Em-GUS transactivation; also recorded: sufficient to transactivate Em-GUS expression"},
      {"measurement": "Synergy with exogenous ABA on Em-GUS expression", "setting": "[2]", "value": "acted in synergy with ABA"},
      {"measurement": "Transactivation of Em-GUS expression by overexpressed effector", "setting": "[2]", "value": "transactivated the Em promoter"}
    ]},
    {"molecule": "RAV2: Arabidopsis ABI3-Like B3 domain transcription factor, At1g68840, SEQ ID NO 3 and 4 (protein, listed as Arabidopsis thaliana) MDSSCIDEISSSTSESFSATTAKKLSPPPAAALRLYRMGSGGSSVVLDPENGLETESRKLPSSKYKGVVPQPNGRWGAQIYEKHQRVWLGTFNEQEEAARSYDIAACRFRGRDAVVNFKNVLEDGDLAFLEAHSKAEIVDMLRKHTYADELEQNNKRQLFLSVDANGKRNGSSTTQNDKVLKTREVLFEKAVTPSDVGKLNRLVIPKQHAEKHFPLPSPSPAVTKGVLINFEDVNGKVWRFRYSYWNSSQSYVLTKGWSRFVKEKNLRAGDVVTFERSTGLERQLYIDWKVRSGPRENPVQVVVRLFGVDIFNVTTVKPNDVVAVCGGKRSRDVDDMFALRCSKKQAIINAL", "values": [
      {"measurement": "Effect of ABA on synergism with VP1", "setting": "[1]", "value": "enhanced by ABA"},
      {"measurement": "Synergy with ABF3 on Em-GUS expression", "setting": "[1]", "value": "synergizes; also recorded: interacts synergistically"},
      {"measurement": "Synergy with ABI5 on Em-GUS expression", "setting": "[1]", "value": "synergizes; also recorded: interacts synergistically"},
      {"measurement": "Synergy with VP1 on Em-GUS expression", "setting": "[1]", "value": "act synergistically to activate Em-GUS expression; also recorded: interacts synergistically"},
      {"measurement": "Effect of co-transformed ABA-INSENSITIVE-1 dominant negative allele on transactivation", "setting": "[1]; maize mesophyll protoplasts, data not shown", "value": "antagonized"},
      {"measurement": "Transactivation of Em-GUS expression by overexpressed effector", "setting": "[1]; maize mesophyll protoplasts", "value": "sufficient for specific Em-GUS transactivation"}
    ]},
    {"molecule": "AREB3: Arabidopsis ABI5-like bZIP transcription factor, At3g56850 (protein, listed as Arabidopsis thaliana) MDSQRGIVEQAKSQSLNRQSSLYSLTLDEVQNHLGSSGKALGSMNLDELLKSVCSVEANQPSSMAVNGGAAAQEGLSRQGSLTLPRDLSKKTVDEVWKDIQQNKNGGSAHERRDKQPTLGEMTLEDLLLKAGVVTETIPGSNHDGPVGGGSAGSGAGLGQNITQVGPWIQYHQLPSMPQPQAFMPYPVSDMQAMVSQSSLMGGLSDTQTPGRKRVASGEVVEKTVERRQKRMIKNRESAARSRARKQAYTHELEIKVSRLEEENERLRKQKEVEKILPSVPPPDPKRQLRRTSSAPF", "values": [
      {"measurement": "Synergy with co-transformed VP1 on Em-GUS expression", "setting": "[1]", "value": "no functional interactions with VP1 and not"},
      {"measurement": "Synergy with exogenous ABA on Em-GUS expression", "setting": "[1]", "value": "synergize with exogenous ABA"},
      {"measurement": "Transactivation of Em-GUS expression by overexpressed effector", "setting": "[1]; maize mesophyll protoplasts", "value": "sufficient to transactivate Em-GUS expression"}
    ]},
    {"molecule": "DPBF4/EEL: Arabidopsis ABI5-like bZIP transcription factor, Enhanced Em Level, At2g41070 (protein, listed as Arabidopsis thaliana) MGSIRGNIEEPISQSLTRQNSLYSLKLHEVQTHLGSSGKPLGSMNLDELLKTVLPPAEEGLVRQGSLTLPRDLSKKTVDEVWRDIQQDKNGNGTSTTTTHKQPTLGEITLEDLLLRAGVVTETVVPQENVVNIASNGQWVEYHHQPQQQQGFMTYPVCEMQDMVMMGGLSDTPQAPGRKRVAGEIVEKTVERRQKRMIKNRESAARSRARKQAYTHELEIKVSRLEEENEKLRRLKEVEKILPSEPPPDPKWKLRRTNSASL", "values": [
      {"measurement": "Synergy with co-transformed VP1 on Em-GUS expression", "setting": "[1]; maize mesophyll protoplasts, co-transformed with VP1", "value": "some antagonism of ABA inducible Em-GUS expression and not"},
      {"measurement": "Transactivation of Em-GUS expression by overexpressed effector", "setting": "[1]; maize mesophyll protoplasts", "value": "sufficient to transactivate Em-GUS expression"},
      {"measurement": "Synergy with exogenous ABA on Em-GUS expression", "setting": "[1]; maize mesophyll protoplasts, exogenous ABA", "value": "synergize with exogenous ABA"}
    ]},
    {"molecule": "VP1: maize VIVIPAROUS-1 B3-domain transcription factor, SEQ ID NO 1 and 2, expressed from 35S promoter (protein, Zea mays) MEASSGSSPPHSQENPPEHGGDMGGAPAEEIGGEAADDFMFAEDTFPSLPDFPCLSSPSSSTFSSNSSSNSSSAYTNTAGRAGGEPSEPASAGEGFDALDDIDQLLDFASLSMPWDSEPFPGVSMMLENAMSAPPQPVGDGMSEEKAVPEGTTGGEEACMDASEGEELPRFFMEWLTSNRENISAEDLRGIRLRRSTIEAAAARLGGGRQGTMQLLKLILTWVQNHHLQRKRPRDVMEEEAGLHVQLPSPVANPPGYEFPAGGQDMAAGGGTSWMPHQQAFTPPAAYGGDAVYPSAAGQQYSFHQGPSTSSVVVNSQPFSPPPVGDMHGANMAWPQQYVPFPPPGASTGSYPMPQPFSPGFGGQYAGAGAGHLSVAPQRMAGVEASATKEARKKRMARQRRLSCLQQQRSQQLSLGQIQTSVHLQEPSPRSTHSGPVTPSAGGWGFWSPSSQQQVQNPLSKSNSSRAPPSSLEAAAAAPQTKPAPAGARQDDIHHRLAAASDKRQGAKADKNLRFLLQKVLKQSDVGSLGRIVLPKKEAEVHLPELKTRDGISIPMEDIGTSRVWNMRYRFWPNNKSRMYLLENTGEFVRSNELQEGDFIVIYSDVKSGKYLIRGVKVRPPPAQEQGSGSSGGGKHRPLCPAGPERAAAAGAPEDAVVDGVSGACKGRSPEGVRRVRQQGAGAMSQMAVSI", "values": [
      {"measurement": "Synergy with exogenous ABA on Em-GUS expression", "setting": "[2]", "value": "acted in synergy with ABA"},
      {"measurement": "Transactivation of Em-GUS expression by overexpressed effector", "setting": "[2]", "value": "transactivated the Em promoter"}
    ]}
  ]
}
